Results as given in EP4778940A1 (Artivila (ShenZhen) Innovation Center, Ltd., dated 2026).
Where a chain is given by its changes, count along the chain named. Values belong to the binder of their own block, whether it stands above or below them.

Assays:
[1] = molecular target: T1, human HHLA2 proteins (Acro Biosystems, B77-H52H5) (human, UniProt Q9UM44 23-344); test: ELISA, human HHLA2 protein coated
T1 construct: Bought recombinant protein coated on the ELISA plate; also called B7-H7; B7y
T1 sequence (looked up): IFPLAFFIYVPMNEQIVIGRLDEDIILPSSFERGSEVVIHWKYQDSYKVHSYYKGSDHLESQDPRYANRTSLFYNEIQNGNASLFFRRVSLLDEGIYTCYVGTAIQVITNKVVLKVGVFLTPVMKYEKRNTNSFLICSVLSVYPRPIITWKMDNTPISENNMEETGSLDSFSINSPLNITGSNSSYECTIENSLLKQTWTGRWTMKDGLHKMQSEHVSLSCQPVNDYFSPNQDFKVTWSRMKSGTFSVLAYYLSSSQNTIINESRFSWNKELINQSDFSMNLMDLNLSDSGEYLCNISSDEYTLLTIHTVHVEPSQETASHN

[2] = molecular target: T2, human HHLA2 on cells (K562-hHHLA2; HCC827) (human, UniProt Q9UM44 23-414); test: flow cytometry on K562-hHHLA2 cells
T2 construct: whole, on cells; also called K562 cells overexpressing human HHLA2; HCC827 cell line highly expressing human HHLA2
T2 sequence (looked up): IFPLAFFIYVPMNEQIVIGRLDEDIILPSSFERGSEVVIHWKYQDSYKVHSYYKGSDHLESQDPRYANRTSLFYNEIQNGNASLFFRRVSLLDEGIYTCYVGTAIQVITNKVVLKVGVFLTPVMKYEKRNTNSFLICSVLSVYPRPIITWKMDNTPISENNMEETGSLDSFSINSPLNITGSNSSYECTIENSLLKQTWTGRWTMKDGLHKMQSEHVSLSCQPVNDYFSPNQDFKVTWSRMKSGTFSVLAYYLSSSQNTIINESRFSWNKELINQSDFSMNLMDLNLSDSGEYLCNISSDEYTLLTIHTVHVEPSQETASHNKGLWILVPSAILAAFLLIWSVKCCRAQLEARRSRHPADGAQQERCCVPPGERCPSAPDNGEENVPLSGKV

[3] = molecular target: T2, human HHLA2 on cells (K562-hHHLA2; …); test: cell-based or functional assay
[4] = molecular target: T2, human HHLA2 on cells (K562-hHHLA2; …); test: flow cytometry on HCC827 tumor cells highly expressing human HHLA2

- binding result [1]: binds
- binding result [2]: binds
B1: Ab01-121M1 (antibody, V domains shown)
VH: DVQLQESGGGLVQPGGSLRLSCAASGSRFSFNVMGWHRQAPGKQRELVALISSGGTANYADSVKGRFTISRDNAGNTMYLQMNTLKPEDTAVYYCTATTPVGQYWGQGTQVTVSS

- binding result [1]: binds
- binding result [2]: binds
B2: Ab01-122M1 (antibody, V domains shown)
VH: DVQLQESGGGLVQPGGSLKLSCTASRRIFTFTAAGWYRQAPGQQREFVAVIANGGHTNYADSVKGRFTISRDNAKNTVYLQMNSLKPEDTAVYYCNTPPAFGSWGPGTQVTVSS

- binding result [1]: binds
- binding result [2]: binds
B3: Ab01-126M1 (antibody, V domains shown)
VH: B2 VH with K19R, R26T, T32S, Q43K, A52T, N53G, N76D

- binding result [1]: binds
- binding result [2]: binds
B4: Ab01-7M2 (antibody, V domains shown)
VH: DVQLQESGGGLVQPGGSLRLSCAASGFTFSSTPMYWYRQAPGKERDFVAIMAPGGYEDIADSVRGRFSISRDNGNNTMYLQMNSLKPEDTALYYCRALNSWGQGTQVTVSS

- EC50 [4]: 0.281 nM
B5: positive control antibody 2C4 (antibody, V domains shown)
VH: EVHLQQSGPELEKPGVSVKISCKASGFSFTDYNMNWVKQSSGKSLEWIGNIDPYYGRINYNQKFKGKATLSVDKSSSTAYMHLKSLTSEDSAVYYCATGAYTSGYSWFAYWGQGTLVTVSS
VL: ENVLTQSPGIMAASLGEKVTMTCSASSSVSSSYLHWYQQRSGASPKPLIHRTSNLASGVPARFSGSGSGTSYSLTISSVEAEDDATYYCQQWSGYPFTFGSGTKLEIK
notes: also called positive control 2C4; positive antibody
- EC50 (nM), promoting the killing effects of NK92MI on target cells (K562 overexpressing human HHLA2) [3]: 0.192 nM

- EC50 [4]: 0.043 nM
B6: Ab01-63M2 (antibody, V domains shown)
VH: DVQLQESGGGLVQPGGSLRLSCAASGFTLDYYVIGWFRQAPGKEREGVSCISSSDGSTYSADSVKGRFTISRDNAENTVYLQMNSLKPEDTAVYYCAARRSPGIEGWCALPFFFGSWGQGTQVTVSS
notes: also called candidate parental antibody Ab01-63M2
- EC50 (nM), promoting the killing effects of NK92MI on target cells (K562 overexpressing human HHLA2) [3]: 0.125 nM

- binding result [1]: binds
B7: Ab01-63Ghm25 (antibody, V domains shown)
VH: B6 VH with D1E, Q5L, D55T, N74T, A75S, E76K, K87R, P88A, Q122L
notes: Humanized or engineered mutant of Ab01-63G4; also called mutant Ab01-63Ghm25

- binding result [1]: binds
B8: Ab01-63Ghm26 (antibody, V domains shown)
VH: B6 VH with D1E, Q5L, D55T, D62Q, N74T, A75S, E76K, K87R, P88A, Q122L
notes: Humanized or engineered mutant of Ab01-63G4; also called mutant Ab01-63Ghm26

- binding result [1]: binds
B9: Ab01-63Ghm28 (antibody, V domains shown)
VH: B6 VH with D1E, Q5L, D55T, N74T, A75S, E76K, K87R, P88A, F112E, Q122L
notes: Humanized or engineered mutant of Ab01-63G4; also called mutant Ab01-63Ghm28

- binding result [1]: binds
- binding result [2]: binds
B10: Ab01-84M2 (antibody, V domains shown)
VH: DVQLQESGGGLVQAGGSLRLSCAASGFPFDDYSIGWFRQAPGKAREGISCISSTHGTTYYTDSVKDRFTITRDNAKNTVYLQMNNLKPEDAAVYYCAAGLDGLACHRRDSGSRYRTQLYDYWGQGTQVTVSS

- binding result [1]: binds
- binding result [2]: binds
B11: Ab01-110M1 (antibody, V domains shown)
VH: DVQLQESGGGLVQTGGSLRLSCAAPGFTLDDYAIGWFRQAPGKERERISCITSSTNRTYYANSVKGRFTISRDSAKNTVYLQMNSLKPEDTAVYYCAAEPILCVLWSAGGAMDYWGKGTQVTVSS

- binding result [1]: binds
- binding result [2]: binds
B12: Ab01-91M2 (antibody, V domains shown)
VH: DVQLQESGGGLVQPGGSLRLSCAASGFTFSNYLMGWYRQAPGKERELVAAINSAGYSTVYAESVKGRFTTSRDNAKSMVYLQMNSLKAEDTAVYYCNARYDRWHDYWGQGTQVTVSS
